Experimental data from PMC3326337.

System: Streptavidin
Experiment: DRaCALA
Details: 5'-biotin on one strand

Substance: 3x ICAP PCR probe with biotin
- Kd: 0.4 nM
